For assay [1], the target named is Drosophila Numb PTB domain (aa 65-203) (Drosophila) (UniProt P16554). Briefly: ITC; Pon fragments (~0.5 mM) injected into PTB proteins (~0.05 mM); 20 °C; 50 mM Tris pH 8.0, 100 mM NaCl, 1 mM EDTA, 1 mM β-ME; one-site binding model. A general note: In ITC the heat of successive injections is recorded.
The target in assay [2] is T1, Numb PTB R171A (Drosophila, UniProt P16554-1 65-203, R171A).
T1 sequence: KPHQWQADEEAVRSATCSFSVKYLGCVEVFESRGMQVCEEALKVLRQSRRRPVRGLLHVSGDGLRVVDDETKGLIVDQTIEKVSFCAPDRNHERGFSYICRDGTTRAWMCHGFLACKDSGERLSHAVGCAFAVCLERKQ
Described as above.

Assay [3] has as its target Drosophila Numb PTB domain (aa 65-203) (Drosophila) (UniProt P16554).
Assay [4] has the same target. This is another data set of the same source.
For assay [5], the target named is Drosophila Numb PTB domain (aa 65–203), P16554-1. Nature of the assay: ITC. The note with it: parent: 1.80 ± 0.17.
The target in assay [6] is T2, Drosophila Numb PTB domain (aa 65-203) (Drosophila, UniProt P16554-1 65-203).
T2 construct: Numb, Drosophila, PTB domain, residues 65-203; theoretical mass 15.7 kDa in the ultracentrifugation; also called dNumb PTB; Numb 65-203; source: E. coli BL21 (DE3), purified (Ni2+-NTA, SEC); not shown: His tag, N-terminal, cleaved
T2 sequence (looked up): T1 sequence with A107R
Briefly: ITC; Pon fragments (~0.5 mM) injected into PTB proteins (~0.05 mM); 20 °C; 50 mM Tris pH 8.0, 100 mM NaCl, 1 mM EDTA, 1 mM β-ME; one-site binding model. The note with it: both partners purified.

For assay [7], the target named is T3, Drosophila Numb PTB domain (aa 65–203) (Drosophila, UniProt P16554-1 65-203).
T3 construct: Numb PTB domain, Drosophila, Uniprot P16554-1, aa 65-203; source: E. coli BL21 (DE3), purified (Ni2+-NTA, SEC); not shown: His tag, N-terminal, cleaved
T3 sequence (looked up): T1 sequence with A107R
Briefly: ITC; ITC200, 20 °C, buffer A (50 mM Tris pH 8.0, 1 mM EDTA, 1 mM β-ME, 100 mM NaCl); Pon fragments (~0.5 mM) injected into PTB proteins (~0.05 mM); one-site binding model. The note with it: both partners purified.

The target in assay [8] is T4, Drosophila Numb PTB domain (aa 65–203) (Drosophila, UniProt P16554-1 65-203).
T4 chain: T1 sequence with A107R
Nature of the assay: ITC.

Assay [9] has as its target T4, Drosophila Numb PTB domain (aa 65–203). Briefly: ITC.
The target in assay [10] is T1, Numb PTB R171A. Nature of the assay: ITC.
Assay [11] has as its target T3, Drosophila Numb PTB domain (aa 65–203). Briefly: AUC; sedimentation velocity, 42,000 rpm, 4 °C, interference detection, SEDFIT; Numb PTB with three molar ratios of Nak AB, or with Pon A2B2. The note with it: both partners purified.

Changes are numbered by the printed parent chain. Names and notes keep the numbering of the source. Square brackets hold non-standard residues; d marks the D form. Ends that are not written are not given here. pT = C[C@@H](OP(=O)(O)O)[C@H](N)C(=O)O

As usually defined, the Kd is the equilibrium constant for the complex coming apart. One may read the stoichiometry N as a count of units in the complex or per binding partner.

On to Pon 110-148 (B1A2) (domain or fragment), for which the Kd is 8.77 µM in assay [1] and greater than 100 µM in [2].
Turning to Pon A2B2 N152P153A (domain or fragment), in assay [1], the Kd was determined as 48.3 µM.
In assay [1], Pon 157-200 (A3B3) (domain or fragment) returned a Kd of 12.2 µM.
Take “Pon N-terminal fragment (aa 1–228), A1B1A2B2A3B3 (domain or fragment)”: the in vitro phase transition, sedimentation assay: share of Numb PTB and Pon A1B3 recovered from the condensed liquid phase, 1:1 mixture, 25 to 100 μM in assay [3] came out at 80%. Also, the in vitro phase transition, sedimentation assay: share of the proteins in the condensed liquid phase against the molar ratio, highest at 1:3 Pon A1B3 to Numb PTB in assay [4] was greater than 90%.
Pon A2B2 fragment N152A; P153A: in [5], the Kd came to 49.3 µM.
Pon 130-162 (A2B2) (domain or fragment): the Kd is 1 µM in assay [1] and greater than 100 µM in assay [2].
QQQQKLPTNPFAVLRQPPKKKKREHACFENPGLNLELPE (domain or fragment) [Pon B1A2 E121A] registered a Kd in [6] greater than 100 µM.

B1: pPon peptide (peptide)
peptide: ESCFTNAAFSS[pT]PKK
notes: Pon, Drosophila; stretch with the A1 motif FTNAAF (N57) followed by the phosphorylated threonine; limits worked out by setting the Asn of FTNAAF to N57 of the A1 motif; source: synthetic peptide (commercially synthesized)
With B1, the Kd in assay [7] is roughly 11 µM.
Consider VRSATTPAKGFVNPALNLRGSDAPASLNPFEIHRPSEASEAACN [Pon A3B3 fragment], for which the Kd in [8] worked out at 12.2 µM.
In turn, QQKLPTNPFAVLRQPPKKKKREHACFENPGLNLE [Pon single-AB fragment with E121A in the B1 motif] came in with a Kd in assay [9] greater than 100 µM.
Take QQKLPTNPFEVLRQPPKKKKREHACFENPGLNLE [Pon B1A2 fragment]: the Kd was greater than 100 µM in [10] and 8.77 µM in assay [8].
Regarding KKREHACFENPGLNLELPE (domain or fragment) [Pon 124-148/130-148 (A2)], the Kd in assay [6] was greater than 100 µM.

B2: pPon peptide (peptide)
peptide: ESCFTNAAFSS[pT]PKK
notes: Pon, Drosophila; the peptide holds the A1 motif FTNAAF; the range is counted from N57 of the A1 motif; source: synthetic peptide
In [6], B2 returned a Kd of 11.3 ± 0.37 µM.
KKKKREHACFENPGLNLELPEKQFAAYEVVRSA [Pon single-AB fragment with N152,P153A in the B2 motif]: the Kd in assay [9] came to 49.3 µM.
For the molecule KKKKREHACFENPGLNLELPEAQFNPYEVVRSA [Pon A2B2 K149A], the affinity in [9], expressed as Kd, was 5.46 µM.
On to KKKKREHACFENPGLNLELPEKQFNPEEVVRSA [Pon single-AB fragment with Y154E in the B2 motif], for which the Kd in assay [9] is greater than 100 µM.
As to KKKKREHACFENPGLNLELPEKQFNPYEVVASA [Pon single-AB fragment with R158A in the B2 motif], in assay [9], the Kd is greater than 100 µM.
Regarding KKKKREHACFENPGLNLELPEKQFNPYEVVRSA [Pon A2B2 fragment], the values for the Kd in assay [10] and in [8] were greater than 100 µM and 1.8 µM, respectively.
Consider QNSAKTGFSNMSFEDFPSDQEMDRLSRTIPFEVVRNEKML [Nak AB fragment (Numb-associated kinase, C-terminal A and B motifs)], for which the “stoichiometry N” value in [11] turned out to be 1.

B3: Pon 1-116 (A1) (domain or fragment)
chain: MLETKSIAALAFTETPRKRKRETLYKNAAPPPNPQQQPPEKDAQDAAVASTESCFTNAAFSSTPKKLMVARRRLAKENSQPNPFPGLEVKSIADLAQKQQHQQHHQQQQQQQQKLP
Regarding B3, in assay [6], the Kd was roughly 70 µM.
Turning to AAVASTESCFTNAAFSST [Pon A1], the Kd in assay [8] is greater than 70 µM.
KKREHACFENPGLNLELPEAQFNPYEVVRSATT (domain or fragment) [Pon A2B2 K148A] displayed a Kd in [6] of 0.48 ± 0.02 µM.
The molecule KKREHACFENPGLNLELPEKQFNPEEVVRSATT (domain or fragment) [Pon A2B2 Y154E] gave a Kd in assay [6] greater than 100 µM.
As for KKREHACFENPGLNLELPEKQFNPYEVVASATT (domain or fragment) [Pon A2B2 R158A], in assay [6], the Kd is greater than 100 µM.

B4: Pon 1-130/41-130 (A1B1) (domain or fragment)
chain: MLETKSIAALAFTETPRKRKRETLYKNAAPPPNPQQQPPEKDAQDAAVASTESCFTNAAFSSTPKKLMVARRRLAKENSQPNPFPGLEVKSIADLAQKQQHQQHHQQQQQQQQKLPTNPFEVLRQPPKKK
In turn, B4 yielded a Kd in assay [6] of 18.1 ± 2.2 µM.

Values taken from article PMC5821850, “Basal condensation of Numb and Pon complex via phase transition during Drosophila neuroblast asymmetric division” (Nature Communications, 2018).
